B1: IQUB (parent)
chain: EADYEDDSKIAFLMQLQDIQYLTE

Variants of: B1
Experiment: protein stability index of a GFP-peptide fusion (GPS, HEK-293T) (PSI 1-6); higher = more stable
Details: c terminus: a fixed tail appended
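Further: lentivirally expressed fusions sorted by FACS into six bins by GFP to DsRed ratio, PSI derived from sequencing read proportions per bin multiplied by bin number.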

| Variant | protein stability index |
| --- | --- |
| EADYEDDSKIAWLMQLQDIQYLTE [F12W] | 3.18 |
| EADYEDDSKIAHLMQLQDIQYLTE [F12H] | 4.62 |
| EADYEDDSKIARLMQLQDIQYLTE [F12R] | 4.38 |
| EADYEDDSKIANLMQLQDIQYLTE [F12N] | 4.33 |
| EADYEDDSKIAPLMQLQDIQYLTE [F12P] | 4.75 |
| EADYEDDSKIAYLMQLQDIQYLTE [F12Y] | 3.73 |
| EADYEDDSKIAILMQLQDIQYLTE [F12I] | 3.19 |
| EADYEDDSKIADLMQLQDIQYLTE [F12D] | 5.07 |
| EADYEDDSKIAMLMQLQDIQYLTE [F12M] | 4.05 |
| EADYEDDAKIAFLMQLQDIQYLTE [S8A] | 3.23 |
| EADYEDDPKIAFLMQLQDIQYLTE [S8P] | 2.6 |
| EADYEDDIKIAFLMQLQDIQYLTE [S8I] | 2.15 |
| EADYEDDFKIAFLMQLQDIQYLTE [S8F] | 1.89 |
| EADYEDDCKIAFLMQLQDIQYLTE [S8C] | 2.29 |
| EADYEDDKKIAFLMQLQDIQYLTE [S8K] | 3.34 |
| EADYEDDHKIAFLMQLQDIQYLTE [S8H] | 3.44 |
| EADYEDDDKIAFLMQLQDIQYLTE [S8D] | 3.62 |
| EADYEDDWKIAFLMQLQDIQYLTE [S8W] | 2.29 |
| EADYEDDGKIAFLMQLQDIQYLTE [S8G] | 3.46 |
| EADYEDDSKIAFLMQLQDIQYFTE [L22F] | 2.91 |
| EADYEDDSKIAFLMQLQDIQYQTE [L22Q] | 3.83 |
| EADYEDDSKIAFLMQLQDIQYETE [L22E] | 4.7 |
| EADYEDDSKIAFLMQLQDIQYPTE [L22P] | 4.51 |
| EADYEDDSKIAFLMQLQDIQYMTE [L22M] | 3.4 |

| Variant | protein stability index |
| --- | --- |
| EADYEDDSKIAFLMQLQDIQYKTE [L22K] | 3.79 |
| EADYEDDSKIAFLMQLQDIQYATE [L22A] | 4.16 |
| EADYEDDSKIAFLMQLQDIQYITE [L22I] | 3.62 |
| EADYEDDSKIAFLMQLQDIQYTTE [L22T] | 3.96 |
| EADYEDDSKIAFLMQLQWIQYLTE [D18W] | 2.2 |
| EADYEDDSKIAFLMQLQQIQYLTE [D18Q] | 2.68 |
| EADYEDDSKIAFLMQLQMIQYLTE [D18M] | 1.83 |
| EADYEDDSKIAFLMQLQSIQYLTE [D18S] | 2.24 |
| EADYEDDSKIAFLMQLQEIQYLTE [D18E] | 2.86 |
| EADYEDDSKIAFLMQLQLIQYLTE [D18L] | 1.69 |
| EADYEDDSKIAFLMQLQTIQYLTE [D18T] | 1.72 |
| EADYEDDSKIAFLMQLQRIQYLTE [D18R] | 2.32 |
| EADYEDDSKIAFLMQLQDIQYLGE [T23G] | 3.19 |
| EADYEDDSKIAFLMQLQDIQYLPE [T23P] | 4.17 |
| EADYEDDSKIAFLMQLQDIQYLYE [T23Y] | 2.21 |
| EADYEDDSKIAFLMQLQDIQYLHE [T23H] | 3.29 |
| EADYEDDSKIAFLMQLQDIQYLRE [T23R] | 3.29 |
| EADYEDDSKIAFLMQLQDIQYLFE [T23F] | 1.98 |
| EADYEDDSKIAFLMQLQDIQYLEE [T23E] | 4.16 |
| EADYEDDSKIAFLMQLQDIQYLVE [T23V] | 1.92 |
| EADYEDDSKIAFLMQLQDIQYLWE [T23W] | 1.97 |
| EADYEDDSKIAFLMQLQDIQYLNE [T23N] | 3.89 |
| EADYEDDSKIAFLMQLQDIQYLSE [T23S] | 3.21 |
| EADYEDDSKIAFLMQLQDIQYLKE [T23K] | 3.2 |

| Variant | protein stability index |
| --- | --- |
| EADYEDDSKIAFLGQLQDIQYLTE [M14G] | 4.37 |
| EADYEDDSKIAFLTQLQDIQYLTE [M14T] | 4.04 |
| EADYEDDSKIAFLSQLQDIQYLTE [M14S] | 3.95 |
| EADYEDDSKIAFLHQLQDIQYLTE [M14H] | 3.96 |
| EADYEDDSKIAFLFQLQDIQYLTE [M14F] | 2.46 |
| EADYEDDSKIAFLQQLQDIQYLTE [M14Q] | 4.23 |
| HADYEDDSKIAFLMQLQDIQYLTE [E1H] | 3.29 |
| QADYEDDSKIAFLMQLQDIQYLTE [E1Q] | 2.76 |
| CADYEDDSKIAFLMQLQDIQYLTE [E1C] | 2.61 |
| YADYEDDSKIAFLMQLQDIQYLTE [E1Y] | 2.23 |
| DADYEDDSKIAFLMQLQDIQYLTE [E1D] | 3.56 |
| IADYEDDSKIAFLMQLQDIQYLTE [E1I] | 2.09 |
| RADYEDDSKIAFLMQLQDIQYLTE [E1R] | 2.44 |
| EPDYEDDSKIAFLMQLQDIQYLTE [A2P] | 3.73 |
| EVDYEDDSKIAFLMQLQDIQYLTE [A2V] | 2.99 |
| EYDYEDDSKIAFLMQLQDIQYLTE [A2Y] | 2.08 |
| EWDYEDDSKIAFLMQLQDIQYLTE [A2W] | 2.17 |
| EEDYEDDSKIAFLMQLQDIQYLTE [A2E] | 3.63 |
| ENDYEDDSKIAFLMQLQDIQYLTE [A2N] | 3.41 |
| EHDYEDDSKIAFLMQLQDIQYLTE [A2H] | 2.51 |
| EADYEDDSKEAFLMQLQDIQYLTE [I10E] | 4.43 |
| EADYEDDSKFAFLMQLQDIQYLTE [I10F] | 2.9 |
| EADYEDDSKAAFLMQLQDIQYLTE [I10A] | 4 |
| EADYEDDSKTAFLMQLQDIQYLTE [I10T] | 3.5 |

| Variant | protein stability index |
| --- | --- |
| EADYEDDSKWAFLMQLQDIQYLTE [I10W] | 3.08 |
| EADYEDDSKMAFLMQLQDIQYLTE [I10M] | 3.2 |
| EADYEDDSKRAFLMQLQDIQYLTE [I10R] | 3.82 |
| EADYEDDSKPAFLMQLQDIQYLTE [I10P] | 4.53 |
| EADYEDDSKDAFLMQLQDIQYLTE [I10D] | 4.35 |
| EADYEDDSKHAFLMQLQDIQYLTE [I10H] | 4.29 |
| EADYEDDSKYAFLMQLQDIQYLTE [I10Y] | 2.76 |
| EADYEDDSKLAFLMQLQDIQYLTE [I10L] | 3 |
| EADYEDDSKIAFLMQLIDIQYLTE [Q17I] | 1.76 |
| EADYEDDSKIAFLMQLADIQYLTE [Q17A] | 2.5 |
| EADYEDDSKIAFLMQLLDIQYLTE [Q17L] | 2.68 |
| EADYEDDSKIAFLMQLVDIQYLTE [Q17V] | 2.67 |
| EADYEDDSKIAFLMQLGDIQYLTE [Q17G] | 3.46 |
| EADYEDDSKIAFLMQLNDIQYLTE [Q17N] | 3.5 |
| EADYEDDSKIAFLMQLWDIQYLTE [Q17W] | 2.02 |
| EADYEDDSKIVFLMQLQDIQYLTE [A11V] | 2.24 |
| EADYEDDSKIKFLMQLQDIQYLTE [A11K] | 3.4 |
| EADYEDDSKIEFLMQLQDIQYLTE [A11E] | 3.39 |
| EADYEDDSKIWFLMQLQDIQYLTE [A11W] | 2.78 |
| EADYEDDSKICFLMQLQDIQYLTE [A11C] | 2.54 |
| EADYEDDSKIIFLMQLQDIQYLTE [A11I] | 1.99 |
| EADYEDDSKISFLMQLQDIQYLTE [A11S] | 2.94 |
